The text below walks through data of paper PMC8801479 (2021).

Holding throughout (assay): ELISA; receptor in solution, complex captured on BMP-7 GF mAb
The target of assay [1] is BMP-7 complex containing biotinylated GF (mature BMP-7 biotinylated through the glycan, reconstituted with … (human, UniProt P18075 293-431, biotin through the sugars (sodium metaperiodate, hydrazide PEG4 Biotin))).
The target of assay [2] is BMP-7 complex containing biotinylated prodomain (prodomain biotinylated through amines, reconstituted with … (human, UniProt P18075 293-431, biotin through amines (EZ-Link NHS-PEG4-Biotin))).
BMP-7 complex containing biotinylated prodomain (prodomain biotinylated through amines, reconstituted with …, sequence (P18075 30-292, chain 1 of 2): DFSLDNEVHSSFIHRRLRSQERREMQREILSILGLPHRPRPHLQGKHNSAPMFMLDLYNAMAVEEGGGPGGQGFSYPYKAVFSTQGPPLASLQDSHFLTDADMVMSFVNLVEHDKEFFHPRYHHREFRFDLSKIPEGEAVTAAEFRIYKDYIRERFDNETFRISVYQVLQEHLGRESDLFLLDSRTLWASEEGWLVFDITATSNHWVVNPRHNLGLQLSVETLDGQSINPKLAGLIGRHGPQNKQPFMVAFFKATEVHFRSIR
BMP-7 complex containing biotinylated prodomain (prodomain biotinylated through amines, reconstituted with …, sequence (P18075 293-431, chain 2 of 2): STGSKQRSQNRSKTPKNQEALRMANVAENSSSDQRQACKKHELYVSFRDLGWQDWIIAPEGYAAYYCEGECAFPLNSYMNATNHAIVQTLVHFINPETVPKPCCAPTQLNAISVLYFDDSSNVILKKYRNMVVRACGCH
The target in assay [3] is unbiotinylated BMP-7 complex (bone morphogenetic protein 7 mature domain/prodomain soluble complex) (human, UniProt P18075 293-431).
unbiotinylated BMP-7 complex (bone morphogenetic protein 7 mature domain/prodomain soluble complex), sequence (P18075 30-292, chain 1 of 2): as the sequence (P18075 30-292, chain 1 of 2) above
unbiotinylated BMP-7 complex (bone morphogenetic protein 7 mature domain/prodomain soluble complex), sequence (P18075 293-431, chain 2 of 2): as the sequence (P18075 293-431, chain 2 of 2) above

BMP-7 complex containing biotinylated GF (mature BMP-7 biotinylated through the glycan, reconstituted with …, sequence (P18075 30-292, chain 1 of 2): as the sequence (P18075 30-292, chain 1 of 2) above
BMP-7 complex containing biotinylated GF (mature BMP-7 biotinylated through the glycan, reconstituted with …, sequence (P18075 293-431, chain 2 of 2): as the sequence (P18075 293-431, chain 2 of 2) above

B1: BMPR2-Fc (bone morphogenetic protein receptor type-2 fused to Fc) (Fc fusion)
chain: SQNQERLCAFKDPYQQDLGIGESRISHENGTILCSKGSTCYGLWEKSKGDINLVKQGCWSHIGDPQECHYEECVVTTTPPSIQNGTYRFCCCSTDLCNVNFTENFPPPDTTPLSPPHSFNRDET
B1: the Kd (commonly the equilibrium constant for the complex coming apart) in assay [1] came to 8.7 nM; in assay [2], 19 nM; in assay [3] it was 11.9 nM.
